Test results from patent publication US20210087281A1 (AGOMAB THERAPEUTICS, published 2021).
Each block holds one binder with its values, some of them ahead of it.

What was measured:
[1] = target: T1, native human MET on living cells (human, UniProt P08581 25-1390); test: cell-based or functional assay
[2] = target: T2, native mouse MET on living cells (mouse, UniProt P16056 25-1379); test: cell-based or functional assay
[3] = target: T1, native human MET on living cells; test: cell-based or functional assay; remark: listed apart in the source
[4] = target: T2, native mouse MET on living cells; test: cell-based or functional assay; remark: listed apart in the source
[5] = target: T1, native human MET on living cells; test: cell-based or functional assay; remark: listed apart in the source
[6] = target: T2, native mouse MET on living cells; test: cell-based or functional assay; remark: listed apart in the source
[7] = target: T1, native human MET on living cells; test: cell-based or functional assay; remark: listed apart in the source
[8] = target: T2, native mouse MET on living cells; test: cell-based or functional assay; remark: listed apart in the source
[9] = target: T1, native human MET on living cells; test: flow cytometry, A549 cells
Procedure: (§1) We also analysed whether chimeric anti-MET antibodies bound to native human and mouse MET in living cells. […] Antibody binding to cells was analysed by flow cytometry using phycoerythrin-conjugated anti-human IgG1 antibodies (eBioscience) and a CyAn ADP analyser (Beckman Coulter). As a positive control for human MET binding, we used a commercial mouse anti-human MET antibody (R&D Systems) and phycoerythrin-conjugated anti-mouse IgG1 antibodies (eBioscience).
(§2) As a positive control for mouse MET binding we used a commercial goat anti-mouse MET antibody (R&D Systems) and phycoerythrin-conjugated anti-goat IgG1 antibodies (eBioscience). […] Consistent with the data obtained in ELISA, maximal binding (EMAX) varied depending on antibody, but was similar in human and mouse cells.

[10] = target: T2, native mouse MET on living cells; test: flow cytometry, MLP29 cells
Procedure: as §1, §2

[11] = target: T3, human MET ECD (human, UniProt P08581 25-932); test: ELISA, MET ECD in solid phase, mAb 0-20 nM
T3 construct: range 1-932; recombinant ECD made by the applicants; the stated range begins at residue 1, so it includes the signal peptide of the entry; also called hMET; hMET ECD
Procedure: (§3) Production (by transient transfection of mammalian cells) and purification (by protein A affinity chromatography) of the resulting chimeric llama-human IgG1 molecules was outsourced to U-protein Express. Binding of chimeric mAbs to MET was determined by ELISA using hMET or mMET ECD in solid phase and increasing concentrations of antibodies (0-20 nM) in solution. […] Binding capacity (EMAX) varied from antibody to antibody, possibly due to partial epitope exposure in the immobilized antigen, but was similar in the human and mouse setting.

[12] = target: T4, mouse MET ECD (mouse, UniProt P16056 25-931); test: ELISA, MET ECD in solid phase, mAb 0-20 nM
T4 construct: range 1-931; recombinant ECD made by the applicants; the stated range begins at residue 1; also called mMET; mMET ECD
Procedure: as §3

[13] = target: T5, human MET-Fc (R&D Systems) (human, UniProt P08581 25-932); test: competition ELISA, hMET-Fc in solid phase, competitor 0.3 nM biotinylated hHGF
T5 construct: extracellular domain; bought chimeric protein; also called hMET; not shown: Fc portion of human IgG1
Procedure: (§4) To investigate along this line, we tested the competition between mAbs and HGF by ELISA. Recombinant human and mouse HGF (R&D Systems) were biotinylated at the N-terminus using NHS-LC-biotin (Thermo Scientific). MET-Fc protein, either human or mouse (R&D Systems), was immobilized in solid phase and then exposed to 0.3 nM biotinylated HGF, either human or mouse, in the presence of increasing concentrations of antibodies (0-120 nM).
(§5) A MET-Fc chimeric protein (either human or mouse) was immobilized in solid phase and exposed to a fixed concentration of biotinylated HGF (either human or mouse), in the presence of increasing concentrations of antibodies. […] Antibody-HGF competition is expressed as IC₅₀ (the concentration that achieves 50% competition) and IMAX (the maximum % competition reached at saturation).

[14] = target: T6, mouse MET-Fc (R&D Systems) (mouse, UniProt P16056 25-929, limits assumed); test: competition ELISA, mMET-Fc in solid phase, competitor 0.3 nM biotinylated mHGF
T6 construct: bought chimeric protein; also called mMET; not shown: Fc part
Procedure: as §4, §5

[15] = target: T3, human MET ECD; test: SPR, MET ECD on chip, crude periplasmic Fab
Procedure: (§6) Fab-expressing phages from the libraries described above were produced according to standard phage display protocols. For selection, phages were first adsorbed to immobilized recombinant human MET ECD, washed, and then eluted using trypsin. After two cycles of selection with human MET ECD, two other cycles were performed in the same fashion using mouse MET ECD. In parallel, we also selected phages alternating a human MET ECD cycle with a mouse MET ECD cycle, for a total of four cycles. Phages selected by the two approaches were pooled together and then used to infect TG1 E. coli. Individual colonies were isolated and secretion of Fabs was induced using IPTG (Fermentas). The Fab-containing periplasmic fraction of bacteria was collected and tested for its ability to bind human and mouse MET ECD by Surface Plasmon Resonance (SPR). Human or mouse MET ECD was immobilized on a CM-5 chip using amine coupling in sodium acetate buffer (GE Healthcare). The Fab-containing periplasmic extracts were loaded into a BIACORE 3000 apparatus (GE Healthcare) with a flow rate of 30 μl/min. The Fab off-rates (koff) were measured over a two minute period. Binding of Fabs to human and mouse MET was further characterized by ELISA using MET ECD in solid phase and periplasmic crude extract in solution.
(§7) TABLE 7 Fabs binding to both human MET (hMET) and mouse MET (mMET). Fabs are grouped in families based on their VH CDR3 sequence. Binding of Fabs to human and mouse MET ECD was determined by Surface Plasmon Resonance (SPR) and by ELISA. SPR values represent the koff (s⁻¹). ELISA values represent the Optical Density (OD) at 450 nm (AU, arbitrary units). Both SPR and ELISA were performed using crude periplasmic extracts. Fab concentration in the extract was not determined. Values are the mean of three independent measurements.

[16] = target: T4, mouse MET ECD; test: SPR, MET ECD on chip, crude periplasmic Fab
Procedure: as §6, §7

[17] = target: T3, human MET ECD; test: ELISA, MET ECD in solid phase, crude periplasmic Fab
Procedure: as §6, §7

[18] = target: T4, mouse MET ECD; test: as above
Procedure: as §6, §7

T1 sequence (P08581 25-1390): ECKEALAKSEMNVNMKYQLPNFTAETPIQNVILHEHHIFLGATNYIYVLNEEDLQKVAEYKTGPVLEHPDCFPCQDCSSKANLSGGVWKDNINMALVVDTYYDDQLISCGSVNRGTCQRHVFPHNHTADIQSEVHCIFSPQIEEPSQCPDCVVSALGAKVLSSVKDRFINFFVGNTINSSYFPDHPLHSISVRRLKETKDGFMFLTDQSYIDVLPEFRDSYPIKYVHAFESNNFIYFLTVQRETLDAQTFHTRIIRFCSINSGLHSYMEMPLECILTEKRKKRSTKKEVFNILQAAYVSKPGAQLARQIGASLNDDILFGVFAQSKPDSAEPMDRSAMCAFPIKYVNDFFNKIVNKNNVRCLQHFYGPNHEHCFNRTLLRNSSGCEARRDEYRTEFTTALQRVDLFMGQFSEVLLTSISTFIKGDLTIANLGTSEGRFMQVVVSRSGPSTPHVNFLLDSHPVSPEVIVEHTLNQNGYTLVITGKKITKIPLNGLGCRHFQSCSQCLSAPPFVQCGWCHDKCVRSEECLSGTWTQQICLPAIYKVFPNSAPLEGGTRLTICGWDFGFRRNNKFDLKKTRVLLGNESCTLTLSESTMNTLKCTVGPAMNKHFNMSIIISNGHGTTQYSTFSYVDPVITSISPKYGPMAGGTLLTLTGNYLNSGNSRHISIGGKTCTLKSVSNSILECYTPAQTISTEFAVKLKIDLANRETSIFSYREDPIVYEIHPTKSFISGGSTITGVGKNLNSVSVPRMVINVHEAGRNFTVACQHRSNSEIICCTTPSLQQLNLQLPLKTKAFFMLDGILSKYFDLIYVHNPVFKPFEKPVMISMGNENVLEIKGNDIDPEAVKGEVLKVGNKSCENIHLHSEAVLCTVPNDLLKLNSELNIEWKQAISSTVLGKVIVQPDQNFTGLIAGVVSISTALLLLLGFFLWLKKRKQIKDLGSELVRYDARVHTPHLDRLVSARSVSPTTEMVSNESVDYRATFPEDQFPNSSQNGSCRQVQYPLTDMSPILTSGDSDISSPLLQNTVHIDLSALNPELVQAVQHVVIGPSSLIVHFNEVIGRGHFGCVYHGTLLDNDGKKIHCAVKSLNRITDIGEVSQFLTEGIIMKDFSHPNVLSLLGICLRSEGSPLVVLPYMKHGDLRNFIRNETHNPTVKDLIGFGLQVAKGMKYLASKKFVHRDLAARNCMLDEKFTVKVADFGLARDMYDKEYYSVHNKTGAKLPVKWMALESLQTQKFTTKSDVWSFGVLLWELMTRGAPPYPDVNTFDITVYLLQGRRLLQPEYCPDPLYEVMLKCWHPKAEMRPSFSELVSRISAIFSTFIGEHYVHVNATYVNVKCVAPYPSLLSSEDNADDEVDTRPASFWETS
T3 sequence (P08581 25-932 limits assumed, form in doubt): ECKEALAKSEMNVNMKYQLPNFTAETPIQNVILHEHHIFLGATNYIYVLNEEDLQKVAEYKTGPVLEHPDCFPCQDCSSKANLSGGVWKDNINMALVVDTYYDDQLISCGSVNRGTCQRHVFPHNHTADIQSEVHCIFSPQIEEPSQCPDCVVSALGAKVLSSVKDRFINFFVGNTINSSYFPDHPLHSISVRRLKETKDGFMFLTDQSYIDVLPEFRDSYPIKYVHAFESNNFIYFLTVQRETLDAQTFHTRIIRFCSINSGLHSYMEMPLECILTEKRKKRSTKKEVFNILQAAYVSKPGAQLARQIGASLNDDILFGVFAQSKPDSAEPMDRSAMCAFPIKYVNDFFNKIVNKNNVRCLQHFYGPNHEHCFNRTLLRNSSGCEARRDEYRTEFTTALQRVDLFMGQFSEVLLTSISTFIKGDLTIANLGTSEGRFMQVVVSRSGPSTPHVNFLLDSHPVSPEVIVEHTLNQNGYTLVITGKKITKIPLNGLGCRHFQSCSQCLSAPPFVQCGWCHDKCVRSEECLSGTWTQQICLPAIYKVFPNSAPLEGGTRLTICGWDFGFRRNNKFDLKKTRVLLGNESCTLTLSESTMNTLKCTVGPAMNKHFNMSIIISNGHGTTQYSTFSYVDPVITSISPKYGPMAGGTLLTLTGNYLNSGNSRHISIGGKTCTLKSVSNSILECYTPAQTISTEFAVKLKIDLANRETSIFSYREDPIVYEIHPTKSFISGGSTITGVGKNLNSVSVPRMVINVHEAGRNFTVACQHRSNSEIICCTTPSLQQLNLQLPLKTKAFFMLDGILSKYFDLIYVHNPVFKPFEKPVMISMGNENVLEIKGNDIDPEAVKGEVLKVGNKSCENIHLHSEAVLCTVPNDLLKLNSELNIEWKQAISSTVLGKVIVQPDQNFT
T5 sequence (P08581 25-932): as the sequence (P08581 25-932 limits assumed, form in doubt) above

B1: 72F8 chimeric llama-human IgG1 mAb (antibody, V domains shown)
VH: ELQLVESGGGLVQPGGSLRLSCAASGFTFSNYVMSWVRQAPGKGLEWVSDTNSGGSTSYADSVKGRFTISRDNAKNTLYLQMNSLKPEDTALYYCARSFFYGMNYWGKGTQVTVSS
VL: QSALTQPPSLSASPGSSVRLTCTLSSGNNIGSYDISWYQQKAGSPPRYLLNYYTDSRKHQDSGVPSRFSGSKDASANAGLLLISGLQPEDEADYYCSAYKSGSYRWVFGGGTHVTVL
notes: llama VH on human IgG1 CH1-CH2-CH3, llama VL on human lambda CL
phospho-MET ELISA EC50, A549 cells [1]: 1.51 nM
phospho-MET ELISA EMAX (% HGF activity), A549 cells [1]: 69.7%
phospho-MET ELISA EC50, MLP29 cells [2]: 0.79 nM
phospho-MET ELISA EMAX (% HGF activity), MLP29 cells [2]: 66.8%
scatter score 0-4, HPAF-II, 0.001 nM [3]: 0 score
scatter score 0-4, HPAF-II, 0.004 nM [3]: 0 score
scatter score 0-4, HPAF-II, 0.012 nM [3]: 0 score
scatter score 0-4, HPAF-II, 0.037 nM [3]: 0 score
scatter score 0-4, HPAF-II, 0.111 nM [3]: 0 score
scatter score 0-4, HPAF-II, 0.333 nM [3]: 0 score
scatter score 0-4, HPAF-II, 1.000 nM [3]: 1 score
scatter score 0-4, HPAF-II, 3.000 nM [3]: 2 score
scatter score 0-4, HPAF-II, 9.000 nM [3]: 3 score
scatter score 0-4, MLP29, 0.001 nM [4]: 0 score
scatter score 0-4, MLP29, 0.004 nM [4]: 0 score
scatter score 0-4, MLP29, 0.012 nM [4]: 0 score
scatter score 0-4, MLP29, 0.037 nM [4]: 0 score
scatter score 0-4, MLP29, 0.111 nM [4]: 0 score
scatter score 0-4, MLP29, 0.333 nM [4]: 0 score
scatter score 0-4, MLP29, 1.000 nM [4]: 1 score
scatter score 0-4, MLP29, 3.000 nM [4]: 2 score
scatter score 0-4, MLP29, 9.000 nM [4]: 3 score
protection from staurosporine, viability EC50, MCF10A cells [5]: > 32 nM
protection from staurosporine, viability EMAX, MCF10A cells [5]: 35.8%
protection from staurosporine, viability EC50, MLP29 cells [6]: > 32 nM
protection from staurosporine, viability EMAX, MLP29 cells [6]: 43.8%
branches per spheroid, LOC cells, 0.5 nM [7]: 9 branches
branches per spheroid, LOC cells, 2.5 nM [7]: 12.3 branches
branches per spheroid, LOC cells, 12.5 nM [7]: 16 branches
branches per spheroid, MLP29 cells, 0.5 nM [8]: 12.7 branches
branches per spheroid, MLP29 cells, 2.5 nM [8]: 11.7 branches
branches per spheroid, MLP29 cells, 12.5 nM [8]: 18.7 branches
EC50 [9]: 0.371 nM
EMAX [9]: 156 % relative to control
EC50 [10]: 0.359 nM
EMAX [10]: 172 % relative to control
EC50 [11]: 0.064 nM
EMAX (OD450) [11]: 2.78 AU
EC50 [12]: 0.048 nM
EMAX (OD450) [12]: 2.9 AU
IC50 [13]: 0.45 nM
IMAX [13]: 77.3%
IC50 [14]: 0.52 nM
IMAX [14]: 72.8%

B2: 71D6 Fab (Fab, V domains shown)
VH: ELQLVESGGGLVQPGGSLRLSCAASGFTFSSYGMSWVRQAPGKGLEWVSAINSYGGSTSYADSVKGRFTISRDNAKNTLYLQMNSLKPEDTAVYYCAKEVRADLSRYNDYESYDYWGQGTQVTVSS
VL: QPVLNQPSALSVTLGQTAKITCQGGSLGARYAHWYQQKPGQAPVLVIYDDDSRPSGIPERFSGSSSGGTATLTISGAQAEDEGDYYCQSADSSGSVFGGGTHLTVL
notes: llama Fab (VH-CH1 and lambda VL-CL) with MYC flag, crude periplasmic extract
koff [15]: 0.00294 s⁻¹
koff [16]: 0.00267 s⁻¹
OD450 [17]: 3.26 AU
OD450 [18]: 3.07 AU

Second part, led by results:

phospho-MET ELISA EC50, A549 cells [1]: 0.52 nM
phospho-MET ELISA EMAX (% HGF activity), A549 cells [1]: 87.6%
phospho-MET ELISA EC50, MLP29 cells [2]: 0.41 nM
phospho-MET ELISA EMAX (% HGF activity), MLP29 cells [2]: 102%
scatter score 0-4, HPAF-II, 0.001 nM [3]: 0 score
scatter score 0-4, HPAF-II, 0.004 nM [3]: 0 score
scatter score 0-4, HPAF-II, 0.012 nM [3]: 0 score
scatter score 0-4, HPAF-II, 0.037 nM [3]: 1 score
scatter score 0-4, HPAF-II, 0.111 nM [3]: 2 score
scatter score 0-4, HPAF-II, 0.333 nM [3]: 3 score
scatter score 0-4, HPAF-II, 1.000 nM [3]: 3 score
scatter score 0-4, HPAF-II, 3.000 nM [3]: 4 score
scatter score 0-4, HPAF-II, 9.000 nM [3]: 4 score
scatter score 0-4, MLP29, 0.001 nM [4]: 0 score
scatter score 0-4, MLP29, 0.004 nM [4]: 0 score
scatter score 0-4, MLP29, 0.012 nM [4]: 0 score
scatter score 0-4, MLP29, 0.037 nM [4]: 1 score
scatter score 0-4, MLP29, 0.111 nM [4]: 2 score
scatter score 0-4, MLP29, 0.333 nM [4]: 3 score
scatter score 0-4, MLP29, 1.000 nM [4]: 3 score
scatter score 0-4, MLP29, 3.000 nM [4]: 4 score
scatter score 0-4, MLP29, 9.000 nM [4]: 4 score
branches per spheroid, LOC cells, 0.5 nM [7]: 10.3 branches
branches per spheroid, LOC cells, 2.5 nM [7]: 17 branches
branches per spheroid, LOC cells, 12.5 nM [7]: 18.7 branches
branches per spheroid, MLP29 cells, 0.5 nM [8]: 17.3 branches
branches per spheroid, MLP29 cells, 2.5 nM [8]: 15.3 branches
branches per spheroid, MLP29 cells, 12.5 nM [8]: 22.3 branches
EC50 [9]: 0.235 nM
EMAX [9]: 85.7 % relative to control
EC50 [10]: 0.208 nM
EMAX [10]: 73.8 % relative to control
EC50 [11]: 0.09 nM
EMAX (OD450) [11]: 0.994 AU
EC50 [12]: 0.116 nM
EMAX (OD450) [12]: 0.896 AU
IC50 [13]: 0.43 nM
IMAX [13]: 76.9%
IC50 [14]: 0.49 nM
IMAX [14]: 71.5%
B3: 74C8 chimeric llama-human IgG1 mAb (antibody, V domains shown)
VH: EVQLVESGGGLVQPGGSLRLSCAASGFTFRNYHMSWVRQVPGKGFEWISDINSAGGSTYYADSVKGRFTISRDNAKNTLYLEMNSLKPEDTALYYCARVNVWGVNYWGKGTLVSVSS
VL: QTVVTQEPSLSVSPGGTVTLTCGLSSGSVTTSNYPGWFQQTPGQAPRTLIYNTNSRHSGVPSRFSGSISGNKAALTITGAQPEDEADYYCSLYPGSYTNVFGGGTHLTVL
notes: as for B1
protection from staurosporine, viability EC50, MCF10A cells [5]: > 32 nM
protection from staurosporine, viability EMAX, MCF10A cells [5]: 41.7%
protection from staurosporine, viability EC50, MLP29 cells [6]: > 32 nM
protection from staurosporine, viability EMAX, MLP29 cells [6]: 37.5%

koff [15]: 0.00568 s⁻¹
koff [16]: 0.00544 s⁻¹
OD450 [17]: 3.7 AU
OD450 [18]: 3.7 AU
B4: 76H10 Fab (Fab, V domains shown)
VH: QLQLVESGGGLVQPGGSLRVSCTASGFTFNTYYMTWVRQAPGKGLEWVSDINSGGGTYYADSVKGRFTISRDNAKNTLYLQMNSLKPEDTALYYCVRVRIWPVGYDYWGQGTQVTVSS
VL: QAVVTQEPSLSVSPGGTVTLTCGLSSGSVTTSNYPGWFQQTPGQAPRTLIYNTNNRHSGVPSRFSGSISGNKAALTITGAQPEDEADYYCSLYTGSYTTVFGGGTHLTVL
notes: as for B2
